Test results taken from patent US20240010735A1 (EISAI R AND D MANAGEMENT, published 2024).

How the values were obtained:
[1] = target: T1, human EphA1 extracellular region-SEAP-His protein (human, UniProt P21709 26-547); test: ELISA: SEAP-His proteins (1 nM) captured on anti-6-His antibody, antibody B 10 µg/mL with human IgG 100 µg/mL, HRP anti-human IgG, OD450 as % of human EphA4-SEAP-His
T1 construct: extracellular domain; also called Eph receptor extracellular region-SEAP-His protein; not shown: secretory alkaline phosphatase (SEAP); histidine tag
T1 sequence (looked up): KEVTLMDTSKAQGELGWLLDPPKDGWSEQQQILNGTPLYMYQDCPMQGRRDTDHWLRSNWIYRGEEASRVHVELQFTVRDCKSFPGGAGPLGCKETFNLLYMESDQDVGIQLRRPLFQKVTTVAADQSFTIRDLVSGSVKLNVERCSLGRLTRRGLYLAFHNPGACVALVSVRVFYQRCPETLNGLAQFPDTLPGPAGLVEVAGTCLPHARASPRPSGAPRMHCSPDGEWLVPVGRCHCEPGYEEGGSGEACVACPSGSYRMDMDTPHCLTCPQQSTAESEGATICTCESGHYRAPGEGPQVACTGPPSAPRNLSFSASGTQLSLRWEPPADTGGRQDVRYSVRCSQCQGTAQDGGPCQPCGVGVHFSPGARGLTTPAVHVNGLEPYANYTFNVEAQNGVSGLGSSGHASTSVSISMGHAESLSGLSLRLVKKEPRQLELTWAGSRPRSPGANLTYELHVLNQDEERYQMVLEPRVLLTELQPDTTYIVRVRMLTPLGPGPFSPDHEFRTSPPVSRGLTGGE

[2] = target: T2, human EphA5 extracellular region-SEAP-His protein (human, UniProt P54756 25-573); test: as above
T2 construct: extracellular domain; also called Eph receptor extracellular region-SEAP-His protein; not shown: secretory alkaline phosphatase (SEAP); histidine tag

[3] = target: T3, human EphB3 extracellular region-SEAP-His protein (human, UniProt P54753 34-559); test: as above
T3 construct: extracellular domain; also called Eph receptor extracellular region-SEAP-His protein; not shown: secretory alkaline phosphatase (SEAP); histidine tag
T3 sequence (looked up): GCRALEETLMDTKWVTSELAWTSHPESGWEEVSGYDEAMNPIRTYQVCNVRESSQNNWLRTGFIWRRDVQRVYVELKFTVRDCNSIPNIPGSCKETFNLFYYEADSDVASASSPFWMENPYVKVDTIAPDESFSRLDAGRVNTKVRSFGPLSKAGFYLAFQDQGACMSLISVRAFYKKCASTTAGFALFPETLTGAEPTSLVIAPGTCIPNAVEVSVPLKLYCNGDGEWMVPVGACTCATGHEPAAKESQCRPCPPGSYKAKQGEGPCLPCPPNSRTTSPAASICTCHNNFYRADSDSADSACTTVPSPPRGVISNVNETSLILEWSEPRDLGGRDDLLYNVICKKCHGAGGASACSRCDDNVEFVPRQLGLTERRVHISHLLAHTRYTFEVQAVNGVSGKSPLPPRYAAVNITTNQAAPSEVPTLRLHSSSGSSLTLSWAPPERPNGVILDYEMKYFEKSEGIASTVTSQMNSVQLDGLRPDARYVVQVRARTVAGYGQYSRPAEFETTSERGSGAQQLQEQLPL

[4] = target: T4, mouse EphB2 extracellular region-Fc-His protein (mouse; human, UniProt P54763 19-543); test: ELISA: Fc-His proteins (1 nM) captured on anti-6-His antibody, antibody B 10 µg/mL with human IgG 100 µg/mL, HRP anti-human kappa light chain antibody, OD450 as % of mouse EphA4-Fc-His
T4 construct: extracellular domain; not shown: Fc region of human IgG1; histidine tag
T4 sequence (looked up): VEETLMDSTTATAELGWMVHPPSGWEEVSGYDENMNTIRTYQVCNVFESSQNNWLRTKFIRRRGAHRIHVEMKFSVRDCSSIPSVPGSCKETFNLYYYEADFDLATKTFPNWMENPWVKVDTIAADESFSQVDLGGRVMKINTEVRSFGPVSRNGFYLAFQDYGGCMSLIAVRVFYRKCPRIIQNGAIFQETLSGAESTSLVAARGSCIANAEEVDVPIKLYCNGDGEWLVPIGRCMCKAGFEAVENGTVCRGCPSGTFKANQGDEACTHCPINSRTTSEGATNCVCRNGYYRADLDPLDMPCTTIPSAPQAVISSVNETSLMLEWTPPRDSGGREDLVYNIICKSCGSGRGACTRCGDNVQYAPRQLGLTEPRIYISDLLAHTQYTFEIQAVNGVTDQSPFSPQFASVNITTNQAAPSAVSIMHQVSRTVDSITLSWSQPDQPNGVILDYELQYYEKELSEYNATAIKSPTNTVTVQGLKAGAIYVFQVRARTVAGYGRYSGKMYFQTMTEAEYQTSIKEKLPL
Procedure: Rabbit anti-6-His antibodies (Bethyl Laboratories) were coated onto the wells of a 96-well plate (Nunc). After incubating at 4° C. overnight, the wells were blocked at room temperature for 1 hour by 1% Block Ace (DS Pharma Biomedical). After washing 3 times with 0.05% Tween 20/PBS (Thermo […]), each Eph receptor of mouse extracellular region-Fc-His protein (final concentration 1 nM) was seeded into each well, and incubated at room temperature for 1 hour. After washing 3 times, human IgG solution (100 μg/mL, Sigma) and antibody B (10 μg/mL) were supplemented to the wells, and incubated at room temperature for 1 hour. Horseradish peroxidase-labeled goat anti-human Kappa Light Chain antibody (IBL) was added, and incubated at room temperature for 1 hour. After washing 3 times, TMBZ (3,3′,5,5′-tetramethylbenzidine, Sigma) solution was added to the wells, and upon confirmation of modest coloring, an equal amount of quenching solution (1 N H₂SO₄, Wako Pure Chemicals) was added to the wells, and absorbance at 450 nm was read by a microplate reader (PerkinElmer).

Measured: binding result

T2 sequence (P54756 25-573): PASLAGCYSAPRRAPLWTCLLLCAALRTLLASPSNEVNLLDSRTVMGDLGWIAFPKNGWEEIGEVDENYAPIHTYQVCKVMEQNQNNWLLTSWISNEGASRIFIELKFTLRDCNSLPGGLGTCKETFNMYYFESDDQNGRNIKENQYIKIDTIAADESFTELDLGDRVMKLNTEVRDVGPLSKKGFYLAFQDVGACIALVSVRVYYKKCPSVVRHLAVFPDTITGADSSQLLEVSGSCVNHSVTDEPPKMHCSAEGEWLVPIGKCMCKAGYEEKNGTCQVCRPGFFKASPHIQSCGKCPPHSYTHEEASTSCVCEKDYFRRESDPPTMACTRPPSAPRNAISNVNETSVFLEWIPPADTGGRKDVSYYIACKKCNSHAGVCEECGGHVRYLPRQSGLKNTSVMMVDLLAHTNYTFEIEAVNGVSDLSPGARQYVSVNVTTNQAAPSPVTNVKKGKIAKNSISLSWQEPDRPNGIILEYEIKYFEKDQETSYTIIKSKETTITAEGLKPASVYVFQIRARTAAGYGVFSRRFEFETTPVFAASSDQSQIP

B1: humanized anti-EphA4 monoclonal antibody (antibody B) (antibody, human IgG2, V domains shown)
VH: QVQLVESGGGVVQPGRSLRLSCAVSGFSLTRFGVHWVRQAPGKGLEWVAVIWRGGSTDYNAAFMSRLTISKDNSKNTVYLQMNSLRAEDTAVYYCAKESLFGVYYDYGYYSMDYWGQGTTVTVSS
VL: DIQMTQSPSSLSASVGDRVTITCRASQEISGYLSWLQQKPGKAPKRLIYAASTLDSGVPSRFSGSRSGTEYTLTISSLQPEDFATYYCLQYASYPLTFGGGTKVEIKR
notes: expressed in Expi293F cells; also called humanized antibody of antibody A; HK2-42 / L1-8
no binding (tested: 10 µg/mL): [1] | [2] | [3] | [4]
